Experimental findings from US20250326807A1, “CALPROTECTIN BINDING PEPTIDES” (Buehlmann Laboratories AG, priority 2022, published 2025) are described below.

For one assay, the target named is T1, Recombinantly expressed fused calprotectin (His6-linker-S100A9-linker-S100A8), product code B-RCAL, BÜHLMANN Laboratories AG (human), P06702.
T1 chain: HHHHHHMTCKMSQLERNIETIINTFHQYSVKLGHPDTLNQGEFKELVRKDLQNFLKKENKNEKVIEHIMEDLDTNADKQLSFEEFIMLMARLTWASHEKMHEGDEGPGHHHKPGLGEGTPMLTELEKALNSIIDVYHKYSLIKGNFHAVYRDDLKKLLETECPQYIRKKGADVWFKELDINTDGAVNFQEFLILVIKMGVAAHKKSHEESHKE
As to the kind of experiment: fluorescence polarization. The following applies: modification not given. In general terms: Polarisation of emitted light reports the rotation of a fluorescent probe.
For orientation: Kd means the constant that tells how readily two partners part at equilibrium. Consider RCPECVGFPMFQCHWYCG, for which the Kd is 29 nM.
For RCAECVAFPMFQCHWYCG, the Kd worked out at 28 nM.
For the molecule RSPESVAFPMFQSHWYSA, the Kd is 31 nM.
On to RCPACVAFPMFQCHWYCG, for which the Kd was 26 nM.
On the same count and under the same terms, the result for ASPESVAFPMFQSHWYSG reads 32 nM; that for RSPESVGFPMFQSHWYSG, 29 nM; that for RSPESVAFPMFASHWYSG, 27 nM.
With RSPESVAFPMFQSHAYSG, the Kd turned out to be 24 nM.
As for RSPESAAFPMFQSHWYSG, the equilibrium dissociation constant (Kd) is 39 nM.
With RSPESVAFAMFQSHWYSG, the dissociation constant (Kd) was found to be 30 nM.
For RSPASVAFPMFQSHWYSG, the dissociation constant (Kd) was found to be 26 nM.
On to ACPECVAFPMFQCHWYCG, for which the Kd came to 32 nM.
For the molecule RCPECVAFAMFQCHWYCG, the Kd was 30 nM.
On the same count and under the same terms, with RCPECVAFPMFACHWYCG the figure was 27 nM; with RSAESVAFPMFQSHWYSG, 28 nM; with RCPECVAFPMFQCHWYCA, 31 nM.
Same read-out and setting: the result for RCPECVAFPMFQCHAYCG reads 24 nM; that for RCPECAAFPMFQCHWYCG, 39 nM.

Another assay has as its target T1, Recombinantly expressed fused …. Briefly: SPR. Particulars: modification not given.
As for RCPECVAEPMFQCHWYCG [F8 Glu], the Kd is > 10000 nM.
With RCPECVAFPMFQCHWACG [Y16 L-Ala], the equilibrium dissociation constant (Kd) is > 10000 nM.
Regarding RCPECVAFPMAQCHWYCG [F11 L-Ala], the Kd is > 10000 nM.
For RCPECVAYPMFQCHWYCG [F8 Tyr], the Kd is > 10000 nM.
On the same count and under the same terms, the result for RCPECVAFPMKQCHWYCG [F11 Lys] reads > 10000 nM.
Turning to RCPECVAFPMFQCAWYCG [H14 L-Ala], the Kd was > 10000 nM.
For RCPECVAAPMFQCHWYCG [F8 L-Ala], the Kd is > 10000 nM.
The same measure, in the same setting: the result for RCPECVAFPMEQCHWYCG [F11 Glu] reads > 10000 nM; that for RCPECVAQPMFQCHWYCG [F8 Gln], > 10000 nM; that for RCPECVAFPMQQCHWYCG [F11 Gln], > 10000 nM.
With RCPECVAFPMIQCHWYCG [F11 Ile], the Kd was > 10000 nM.
For RCPECVAIPMFQCHWYCG [F8 Ile], the Kd was > 10000 nM.
